For 1 substance, DBC10% (dynamic binding capacity results are on record in patent US20120149875A1.

Assay [1] has as its target Fc-Fusion Protein (human soluble TNFα receptor linked to the Fc component of human immunoglobulin G1) (human) [IgG part: P01857]. Put plainly: frontal analysis with CHO supernatant feed, Z4 medium of low ligand density, residence time 6 min.
For assay [2] the target is unchanged. Put plainly: frontal analysis with CHO supernatant feed, Z4 medium of low ligand density, residence time 2.4 min.
For assay [3] the target is unchanged. As to the kind of experiment: frontal analysis with CHO supernatant feed, fractions analysed on HiTrap MabSelect SuRe, residence time 6 min.
The target is the same in assay [4]. As to the kind of experiment: frontal analysis with CHO supernatant feed, fractions analysed on HiTrap MabSelect SuRe, residence time 2.4 min.

Consider “Z4, tetramer of alkaline stabilized protein A (SuRe ligand domain / Z domain), MabSelect SuRe (designed binder)”, for which the DBC10% (dynamic binding capacity at 10% breakthrough) in assay [1] amounted to 9 mg/mL; in assay [2], 5 mg/mL; in assay [3], 10 mg/mL; in assay [4], 6 mg/mL.
